Consider one substance from PMC7367177.

This assay has as its target ItaT(G115D) mutant protein (E. coli HS). Kind of assay: crystal structure.

The substance ItaT(G115D) mutant protein (enzyme) gave a stoichiometry N of 2.
